The supplement of paper PMC10126150
± gives the standard deviation of the averaged measurements.

System: ATP
Assay: switch fluorescence ratio, 500 uM ATP over buffer (Cy3 cluster intensity, sum of 5 cycles each) (fold (ratio)); higher = stronger signal-on switching upon ATP binding; sequences stand for … in TCGTCGGCAGCGTCAGATGTGTATAAGAGACAGTTTTTTTTTTTTTTTTTTTTTTTTT…TC
Conditions: aptamer strand: ATP DNA aptamer (quencher-CACCTGGGGGAGTATTGCGGAGGAAGG + anchor), 100 nM annealed; ATP concentration: 500 uM
Procedure, shortened: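 Values give the fluorescence ratio for each switch-domain sequence, averaged from per-cluster ratios of summed target-cycle to summed buffer-cycle Cy3 intensity. The Cy3-labelled switching-strand clusters sat on a modified Illumina MiSeq flow-cell, were annealed to 100 nM quencher-labelled ATP aptamer, and were imaged in selection buffer, then after 15 min with 500 uM ATP at 22 °C. Five cycles ran with NaOH stripping and re-annealing between them, and clusters outside 100-1000 RFU were excluded.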
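Further: ATP exposure 15 min at 22 °C before imaging.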

Sequence | switch fluorescence ratio
GCGCAATCTG | 1.98 ± 0.52
CCTAGTTAGT | 1.02 ± 0.034
GCCAAACGGG | 1.13 ± 0.16
GAAATATGTG | 0.9885 ± 0.0022
GGGTGGTCAG | 1.01 ± 0.023
AGCGGCATGT | 0.978 ± 0.077
AGGTGCTTAC | 1.04 ± 0.037
TAGGTCTACG | 1.02 ± 0.019
GGGCTAGTAC | 1.13 ± 0.017
CAGCTAGCGG | 0.97 ± 0.025
AGGCTCACAA | 1.07 ± 0.03
GAGTCACAGT | 1 ± 0.057
ACATCAAAAT | 1.001 ± 0.0015
CAGGTACGGG | 1.02 ± 0.025
AGTCACTTAG | 1.05 ± 0.015
AATACGGGGA | 1.02 ± 0.024
TGGGGTCCGG | 0.97 ± 0.079
GCGAGGGATG | 1.002 ± 0.0043
GCAGGGTAAA | 0.986 ± 0.02
ACCAAGGGTG | 1.135 ± 0.0042
TTGTTGAGGA | 1.01 ± 0.028
TCGGGCGCAT | 1.27 ± 0.026
TCGGAGATCG | 0.9443 ± 0.001

Sequence | switch fluorescence ratio
ATGGCCGATA | 0.9537 ± 0.0027
ACCGTAGCGG | 1.12 ± 0.023
TAGGATTACT | 1.02 ± 0.014
GGGGGCCCGT | 1.46 ± 0.69
ATTTTGCGTT | 0.998 ± 0.031
CTTAAAATGG | 1.03 ± 0.038
AGGGGGGGGC | 1.04 ± 0.13
CGGATCTTGT | 0.961 ± 0.021
TTGGATTAGG | 1.01 ± 0.024
AGGACTTGTC | 0.951 ± 0.01
TCAGAAGGGT | 0.994 ± 0.03
TTTTTAGTTG | 1.12 ± 0.41
TAAGAAGGCG | 0.9734 ± 0.0047
ATTGGGTGTT | 1.02 ± 0.029
AGCATATGAA | 1.02 ± 0.071
TTGCATTTGT | 1 ± 0.03
CTAAAAGGGG | 1.02 ± 0.021
AGTAAGCCAC | 1.05 ± 0.082
TCCAGGAGGT | 1.02 ± 0.033
GGTGTGGAAA | 1 ± 0.015
CCTGCCGTTA | 1.27 ± 0.078
TGGGGTAATG | 0.995 ± 0.038
GGGCACTCTT | 1 ± 0.011

Sequence | switch fluorescence ratio
ATGTGTATTT | 1.03 ± 0.023
AGGGAAGGAA | 1.01 ± 0.037
TTCGATGATA | 1.07 ± 0.08
AAAGATAATG | 1.003 ± 0.0091
GGTCGTTGCT | 0.9456 ± 0.0046
AAATGTTTTT | 0.999 ± 0.028
TATATTACTG | 1.09 ± 0.12
ATGACGCGGG | 0.959 ± 0.023
ATTGTGCTTG | 1 ± 0.027
CGGGCTCTGG | 1.02 ± 0.0016
ACGACGTGGG | 1 ± 0.024
TTGTAGGGTT | 1.02 ± 0.024
GAGTGAGGGC | 0.9957 ± 0.003
GATTGGATGA | 0.992 ± 0.045
TTCCAGGAGC | 0.946 ± 0.091
GGCCAGGGGA | 1.04 ± 0.049
TGGGGGGTTT | 1 ± 0.04
GGATAGGAGC | 0.964 ± 0.033
TGTGTTATGT | 1.03 ± 0.038
TACCTAATTA | 1.04 ± 0.046
AAATAATTAG | 1.01 ± 0.016
TTTGTTTGCG | 1.03 ± 0.032
TTTATGGGGA | 1 ± 0.02

Sequence | switch fluorescence ratio
GGGGTTGAGT | 1.001 ± 0.005
GGTTGCAGCT | 0.975 ± 0.018
AACATGTTGG | 0.991 ± 0.047
TGTTAATGGG | 0.997 ± 0.016
GGTAGGTGGT | 0.98 ± 0.022
AGGTTGGGC | 1.04 ± 0.034
GGGGGGGCGA | 0.987 ± 0.041
GATATAGAGG | 0.986 ± 0.055
AAGACGGGCT | 1.01 ± 0.037
TGGTCGGGGG | 0.997 ± 0.025
AGTTAAAATA | 1 ± 0.021
TTTAAAAGAA | 0.995 ± 0.039
TTAAGATTTA | 0.9933 ± 0.0077
TCGGCAGCGG | 1.01 ± 0.034
TACATGATGG | 1 ± 0.035
TTGTTTTACT | 1.027 ± 0.0056
GAGGAGGTAT | 0.973 ± 0.019
ACTGACTGGT | 1.06 ± 0.037
TAACTATTCC | 1.23 ± 0.082
GGGTTAGGTT | 1.01 ± 0.064
TCGTTTGTAT | 0.972 ± 0.005
GCCTCCCGGG | 1.136 ± 0.0053
GCACTCCAGG | 2.61 ± 0.22

Sequence | switch fluorescence ratio
GAGTACGCTA | 3.07 ± 1.2
AGGGATAAAT | 1.01 ± 0.055
TAAGGGTACG | 1.03 ± 0.058
TGGTACAAAA | 1.04 ± 0.025
TTTGGGTCAA | 1.012 ± 0.0074
GGTATGTACG | 1.03 ± 0.054
CTGTTTGGTA | 1 ± 0.055
TATGTCTTAT | 0.983 ± 0.027
TAGTCTCTTG | 1 ± 0.015
AATGGGGGTG | 1.02 ± 0.032
TATATACGGG | 1.05 ± 0.032
TGGGTAGTTT | 1 ± 0.015
ATTTATGAGG | 1.01 ± 0.016
AACTCGACCC | 1.05 ± 0.05
TGGGGCGCAT | 1.09 ± 0.064
TGGTATTGGT | 0.9655 ± 0.0041
TATCAGGTCC | 0.9982 ± 0.0069
TTTTTGTTCC | 1.08 ± 0.1
AGTTAGCAAT | 2.45 ± 0.11
TTCGTGCTTC | 0.963 ± 0.024
GGGAGCAAAG | 1.04 ± 0.026
CAGCTATTTA | 1.02 ± 0.025
ATTATGTTTA | 1 ± 0.022

Sequence | switch fluorescence ratio
CATGAGTATT | 0.954 ± 0.033
TTGTGTTCTT | 1.01 ± 0.026
TAGTGTTTTT | 0.9775 ± 0.0093
GTTTTGTCAA | 1.02 ± 0.0038
CTTCTGGGGA | 0.993 ± 0.02
TTATCATTC | 1.01 ± 0.019
TTGGGGGCTA | 1 ± 0.04
CGGGACAAGT | 0.982 ± 0.041
GAGCCAGGGA | 1.001 ± 0.0029
TAGGGTTGGG | 1 ± 0.031
ATTGTAATAG | 1.04 ± 0.05
AGGGAGGTTG | 1.01 ± 0.013
TTAGTCCTTG | 0.9914 ± 0.0024
AGGGTTACGG | 1.02 ± 0.025
GTGCTACGTG | 0.966 ± 0.059
GTTTCCATGG | 0.973 ± 0.033
CGTTGCAGGG | 0.984 ± 0.024
GGGTTAGGTG | 1.14 ± 0.065
TCGGTTAAGT | 1.02 ± 0.031
TCCAGGTGCG | 2.96 ± 0.33
TGTTCCGTAT | 0.993 ± 0.044
GAGGGAAGGT | 1.02 ± 0.02
GCGCTTGAGG | 1.006 ± 0.0083

Sequence | switch fluorescence ratio
TTAAGCACCT | 1.304 ± 0.013
ATGCTGGGGT | 0.986 ± 0.021
ATACGACGTG | 1.004 ± 0.0083
AAAACAAACT | 1.26 ± 0.38
GTTAAGGGGA | 0.999 ± 0.021
CTAAGCCCGG | 1 ± 0.011
GAGGGGGCTC | 1.04 ± 0.028
CGGTATTGTG | 0.968 ± 0.028
TTTCTATGGT | 1.003 ± 0.0073
GGTAGTCCAC | 1.01 ± 0.027
TTTAGTATGT | 1.013 ± 0.0025
TTAATGAGTG | 0.99 ± 0.015
ACGTAGGGGT | 1.21 ± 0.27
AGTGCGGGGC | 1.07 ± 0.013
CAGTGAATGA | 1.03 ± 0.017
CGTTTGTTTT | 1 ± 0.041
ATCGCTTAAT | 1.03 ± 0.049
TTTTCCTGGG | 1.03 ± 0.063
TTGTTGATTA | 0.9935 ± 0.0089
